The target in assay [1] is T1, recombinant histidine-tagged cynomolgus monkey E-selectin (Sino Biologicals; 190169-C08H) (cynomolgus monkey, UniProt A0A2K5U7H9 22-554).
T1 construct: also called recombinant cynomolgus monkey E-selectin
T1 sequence: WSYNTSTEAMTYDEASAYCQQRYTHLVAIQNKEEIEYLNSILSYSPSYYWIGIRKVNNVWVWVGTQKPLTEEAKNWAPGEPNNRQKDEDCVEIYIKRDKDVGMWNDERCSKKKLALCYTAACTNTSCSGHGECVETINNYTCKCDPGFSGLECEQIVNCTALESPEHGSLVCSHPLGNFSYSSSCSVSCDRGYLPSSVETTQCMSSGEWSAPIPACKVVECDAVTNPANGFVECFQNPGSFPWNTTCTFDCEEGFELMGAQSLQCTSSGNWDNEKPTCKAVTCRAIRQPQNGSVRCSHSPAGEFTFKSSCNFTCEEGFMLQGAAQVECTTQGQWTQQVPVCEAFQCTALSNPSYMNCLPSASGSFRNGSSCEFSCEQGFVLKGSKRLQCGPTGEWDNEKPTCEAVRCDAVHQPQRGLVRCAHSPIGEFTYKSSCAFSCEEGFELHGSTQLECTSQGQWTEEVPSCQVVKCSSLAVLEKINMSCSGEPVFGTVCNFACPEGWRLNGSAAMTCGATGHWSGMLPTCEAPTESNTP
Nature of the assay: direct binding ELISA, further assay. Here is the method:
Recombinant histidine tagged human P-, E- or L-selectin (Sino Biologicals), mouse E-selectin (Sino Biologicals), rat E-selectin (Sino Biologicals) and Cynomolgus monkey E-selectin (Sino Biologicals) stock solutions were prepared to a final concentration of 1 μg/mL in phosphate buffered saline without calcium and magnesium. Controls included an L-selectin directed antibody (BioLegend; 304811) or P-selectin directed antibody or a negative control IgG. One hundred μL per well of the diluted recombinant selectin proteins were added into a Ni-NTA HisSorb 96 well plate (Qiagen; 35061). Plates were incubated on an orbital shaker at room temperature for 2 hours. Following the incubation, the plates were washed 3 times with 200 μL of wash buffer (50 mM TRIS [trisaminomethane]; 150 mM sodium chloride; 0.05% polysorbate 20, pH 7.4). […] Anti L-selectin and anti-rat-E-selectin antibodies were detected using 1 to 25000 dilution of Peroxidase-conjugated AffiniPure Goat Anti-Mouse IgG (H+L); (Jackson ImnnunoResearch Lab).
Plates were washed and 100 μL per well of 1-Step Ultra TMB substrate (Thermo Scientific) was added and incubated for 5 minutes at room temperature. Reactions were stopped with 100 μL of 2 M sulfuric acid and absorbance read at 450 nm (Spectramax M5e).
For orientation: An ELISA detects its analyte on a solid surface through an enzyme-linked reagent.

The target of assay [2] is T2, cynomolgus monkey E-selectin extracellular domain with 10 His purification tail (cynomolgus monkey, UniProt P16581 22-554 (human entry)).
T2 construct: also called cynomolgus E-selectin; truncated cynomolgus monkey E-selectin
T2 chain: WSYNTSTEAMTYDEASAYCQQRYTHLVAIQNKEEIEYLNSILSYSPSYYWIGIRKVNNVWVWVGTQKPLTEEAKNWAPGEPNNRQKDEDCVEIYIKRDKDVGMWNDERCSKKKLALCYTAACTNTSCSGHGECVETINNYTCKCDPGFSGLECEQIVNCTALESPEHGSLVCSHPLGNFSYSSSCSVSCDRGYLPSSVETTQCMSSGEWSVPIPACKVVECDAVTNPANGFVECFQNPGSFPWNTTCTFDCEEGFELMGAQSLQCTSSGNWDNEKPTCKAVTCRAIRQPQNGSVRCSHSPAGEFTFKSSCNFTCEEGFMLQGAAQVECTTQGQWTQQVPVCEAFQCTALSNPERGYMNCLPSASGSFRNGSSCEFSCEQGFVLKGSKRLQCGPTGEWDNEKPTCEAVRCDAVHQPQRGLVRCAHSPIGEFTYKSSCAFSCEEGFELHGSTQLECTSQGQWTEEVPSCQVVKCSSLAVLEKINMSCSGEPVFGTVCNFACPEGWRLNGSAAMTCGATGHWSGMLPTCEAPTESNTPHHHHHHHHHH
Nature of the assay: SPR, soluble recombinant protein. The procedure:
(§1) To characterize binding of antibodies to human, cynomolgus monkey, and mouse E-selectin, an antibody was diluted to 0.5 μg/mL in HBS-EP+ and captured by the anti-human IgG immobilized on flow cells 2, 3 and 4 for 30 seconds to 1 minute at a flow rate of 10 μL/minute to achieve a capture level of 70 to 300 RU. Flow cell 1 was used as a reference surface. […] HBS-EP+ buffer cycles collected for each captured antibody were used for double-referencing (Myszka D G. J. Mol. Recognition 1999; 12(5):279-84). At the end of each cycle, the entire anti-IgG surface was regenerated by a 30 second pulse of 3 M MgCl₂ and a 30 second pulse of ionic buffer (1.83 M MgCl₂, 0.92 M Urea, 1.83 M Guanidine HCl, pH 7.4) (Andersson K. Analy. Chem. 1999; 71(13): 2475-81). Kinetic assays were conducted at 25° C. at a collection rate of 10 Hertz (Hz) on a BIAcore™ T200 instrument (GE Healthcare). Rate constants and affinities were determined by fitting the data to a 1:1 binding model in BIAcore™ T200 Evaluation software version 3.0 (GE Healthcare).
For orientation: Surface plasmon resonance follows binding to a sensor surface in real time, without labels.

The target of assay [3] is T3, human E-selectin extracellular domain with 10 His purification tail (human, UniProt P16581 22-556).
T3 construct: also called soluable human E-selectin extracellular domain; rhE-Selectin
T3 sequence: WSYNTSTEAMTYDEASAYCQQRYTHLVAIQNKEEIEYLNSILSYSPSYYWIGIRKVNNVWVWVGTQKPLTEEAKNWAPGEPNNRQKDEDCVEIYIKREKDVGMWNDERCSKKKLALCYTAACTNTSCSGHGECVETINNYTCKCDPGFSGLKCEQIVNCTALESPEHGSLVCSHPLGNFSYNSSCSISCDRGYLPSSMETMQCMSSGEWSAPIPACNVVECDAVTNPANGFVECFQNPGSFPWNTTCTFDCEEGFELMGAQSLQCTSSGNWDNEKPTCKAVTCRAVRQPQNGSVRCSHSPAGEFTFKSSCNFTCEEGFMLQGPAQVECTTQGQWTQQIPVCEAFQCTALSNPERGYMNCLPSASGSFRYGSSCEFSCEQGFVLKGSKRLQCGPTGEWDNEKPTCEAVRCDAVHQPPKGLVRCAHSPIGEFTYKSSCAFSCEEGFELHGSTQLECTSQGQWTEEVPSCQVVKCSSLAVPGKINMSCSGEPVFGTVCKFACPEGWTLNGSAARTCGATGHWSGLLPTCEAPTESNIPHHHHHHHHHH
Nature of the assay: SPR, soluble recombinant protein. Here is the method: as §1

B1: optimized anti-E-selectin antibody 1444 (antibody, human IgG1, kappa, V domains shown)
VH: EVQLVESGGGLVQPGGSLRLSCAASGYAIRSAYMHWVRQAPGKGLEWVARIDPANGNTIYVDSVTGRFTISADNAKNSAYLQMNSLRAEDTAVYYCAMDLYSTSEYWGQGTLVTVSS
VL: DIQMTQSPSSLSASVGDRVTITCKTSQNIERYLNWYQQKPGKAPKLLIYAASSLQSGVPSRFSGSGSGTDFTLTISSLQPEDFATYFCLQDNAWPLTFGQGTKVEIKR
notes: effector-null human IgG1, kappa
The term EC50 denotes the concentration needed to bring the measured effect to its halfway point. The Kd is a measure of binding affinity in units of concentration. For the molecule B1, in assay [1], the EC50 lay within 0.071 to 0.075 nM. Also, the Kd in assay [2] is 64.9 nM; in assay [3], 68.4 nM.

For the origin of these results see US20240076386A1 (Pfizer, published 2024).
